What all share (experiment): cell-based or functional assay
Assay [1] deals with M666 ITAM-modified BCMA CAR (ISD: Linker 6-CD3ζ ITAM2-Linker 1-CD3ζ ITAM2-Linker 7-CD3ζ ITAM2-Linker 2) (UniProt P01732).
Assay [2] concerns the target M665 ITAM-modified BCMA CAR (ISD: Linker 6-CD3ζ ITAM1-Linker 1-CD3ζ ITAM1-Linker 7-CD3ζ ITAM1-Linker 2) (UniProt P01732).
The target of assay [3] is M663 ITAM-modified BCMA CAR (ISD: Linker 6-CD3ζ ITAM1-Linker 1-CD3ζ ITAM2-Linker 7-CD3ζ ITAM3-Linker 2) (UniProt P01732).
Sequence of M663 ITAM-modified BCMA CAR (ISD: Linker 6-CD3ζ ITAM1-Linker 1-CD3ζ ITAM2-Linker 7-CD3ζ ITAM3-Linker 2) (P01732 whole entry): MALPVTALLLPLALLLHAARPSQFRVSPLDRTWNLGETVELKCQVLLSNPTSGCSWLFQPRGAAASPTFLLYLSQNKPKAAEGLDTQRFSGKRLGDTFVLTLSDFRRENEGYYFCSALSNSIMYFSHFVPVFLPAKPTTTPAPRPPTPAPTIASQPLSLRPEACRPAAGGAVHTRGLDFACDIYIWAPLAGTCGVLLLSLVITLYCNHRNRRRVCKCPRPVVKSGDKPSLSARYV

Sequence of M666 ITAM-modified BCMA CAR (ISD: Linker 6-CD3ζ ITAM2-Linker 1-CD3ζ ITAM2-Linker 7-CD3ζ ITAM2-Linker 2) (P01732 whole entry): as above
Sequence of M665 ITAM-modified BCMA CAR (ISD: Linker 6-CD3ζ ITAM1-Linker 1-CD3ζ ITAM1-Linker 7-CD3ζ ITAM1-Linker 2) (P01732 whole entry): as above

As to wildtype SIV Nef, the Relative ISD-modified CAR expression (CAR positive rate, FACS with FITC-labeled human BCMA, normalized to empty vector control), day 3 after Nef transduction in assay [1] amounted to 57%; in assay [2] it was 82.3%; in assay [3] it was 46.7%.

Source of the values: patent US20220289814A1.
